Source: patent US20190136256

Biological target: T1, Myc tagged AN (AN-Myc)
T1 chain: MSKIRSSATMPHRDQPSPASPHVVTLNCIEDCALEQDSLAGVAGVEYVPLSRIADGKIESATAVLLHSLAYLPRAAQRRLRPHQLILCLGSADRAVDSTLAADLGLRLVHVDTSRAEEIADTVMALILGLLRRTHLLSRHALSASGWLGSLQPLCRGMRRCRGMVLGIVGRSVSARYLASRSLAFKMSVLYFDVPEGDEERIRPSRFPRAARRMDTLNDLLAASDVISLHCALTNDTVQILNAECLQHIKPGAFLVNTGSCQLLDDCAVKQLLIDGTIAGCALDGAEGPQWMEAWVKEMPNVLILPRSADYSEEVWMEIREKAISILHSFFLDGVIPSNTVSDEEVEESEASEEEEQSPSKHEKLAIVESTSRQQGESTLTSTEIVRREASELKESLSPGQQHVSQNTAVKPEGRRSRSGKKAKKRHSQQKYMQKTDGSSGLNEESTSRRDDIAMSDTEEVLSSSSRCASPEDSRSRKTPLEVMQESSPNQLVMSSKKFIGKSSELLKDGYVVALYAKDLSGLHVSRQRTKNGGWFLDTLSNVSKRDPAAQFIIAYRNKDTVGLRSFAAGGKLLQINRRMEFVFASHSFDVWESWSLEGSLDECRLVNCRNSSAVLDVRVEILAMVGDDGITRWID

B1: HA-tagged TDP1 (HA-TDP1) (protein)
chain: MAHSQVAYLIPLKADLKEDNSSPRITLSEGPNIIGRGNVSIVDKRLSRKHITIIVSTSGSASLSVDGTNPVVIRSSGDGERKKVKPSEEVSVCNDDLIELIPGHHFFKLVLLNGRAAKKARKAEDDVEAIRRFCPPNEKLPSTFRLLSVDALPDWANTSCVSINDVIEGDVVAAILSNYMVDIDWLMSACPKLANIPQVMVIHGEGDGRQEYIQRKKPANWILHKPRLPISFGTHHSKAIFLVYPRGVRVVVHTANLIHVDWNNKSQGLWMQDFPWKDDDKDPPKGCGFEGDLIDYLNVLKWPEFTANLPGRGNVKINAAFFKKFDYSDATVRLIASVPGYHTGFNLNKWGHMKLRTILQECIFDREFRRSPLIYQFSSLGSLDEKWLAEFGNSLSSGITEDKTPLGPGDSLIIWPTVEDVRCSLEGYAAGNAIPSPLKNVEKPFLKKYWARWKADHSARGRAMPHIKTFTRYNDQKIAWFLLTSSNLSKAAWGALQKNNSQLMIRSYELGVLFLPSPIKTQGCVFSCTESNPSVMKAKQETKDEVEKRSKLVTMTWQGDRDLPEIISLPVPYQLPPKPYSPEDVPWSWDRGYSKKDVYGQVWPR
µChIP-qPCR: association of AN with MYB46 promoter: the chromatin association of AN with MYB46 promoter was significantly increased (p<0.05) in vivo when co-expressed with TDP1
